Data published in paper PMC11098961.

Molecular target: PME-1 (UniProt Q9Y570)
Assay: FLAG-PP2Ac immunoprecipitation, PME-1 blot
Conditions: reference: wild type

Row | Substance | binding against the reference (sites S225,T227) | binding against the reference (sites S285)
1 | PP2Ac (from UniProt P67775) S225A/T227A | weaker | 
2 | PP2Ac (from UniProt P67775) S285A |  | weaker
